Measurements: PMC3940844

Experiments:
[1] = target: GST-TBP (glutathione S-transferase-tagged human TATA-binding protein) (human) (UniProt P20226); assay: pull-down; GST pull-down with increasing amounts of protein (p53 by the text, GST proteins by the legend); ratio of bound p53 to input by band intensity
[2] = target: FH-p53 (FLAG- and oligohistidine-tagged human p53) (human) (UniProt P04637); assay: pull-down; competitive GST pull-down: FH-TLP or FH-TBP co-applied with FH-p53 to beads with GST-TBP or GST-TLP; recovered p53 by band intensity

Sequence of GST-TBP (glutathione S-transferase-tagged human TATA-binding protein) (human) (P20226 whole entry): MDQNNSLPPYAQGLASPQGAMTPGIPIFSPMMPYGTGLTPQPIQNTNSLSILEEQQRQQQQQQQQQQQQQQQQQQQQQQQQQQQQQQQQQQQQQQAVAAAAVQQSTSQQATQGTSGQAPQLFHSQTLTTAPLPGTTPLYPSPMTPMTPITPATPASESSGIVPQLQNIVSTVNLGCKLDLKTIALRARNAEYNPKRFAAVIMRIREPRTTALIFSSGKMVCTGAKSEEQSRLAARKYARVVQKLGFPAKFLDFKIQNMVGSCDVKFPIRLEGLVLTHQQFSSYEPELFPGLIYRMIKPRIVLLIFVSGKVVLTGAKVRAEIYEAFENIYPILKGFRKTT

| ratio of bound p53 to input at the plateau [1] | p53 recovered on GST-TLP with FH-TBP as competitor, percent of the control experiment [2] [%] | Substance |
| --- | --- | --- |
| 0.5 |  | FH-p53 (FLAG- and oligohistidine-tagged human p53) (from UniProt P04637 1-393) (natural protein) |
|  | 6 | FH-TBP (purified competitor in the pull-down) (from UniProt P20226 1-339) (natural protein) |
